Data reported in the supplement of paper PMC9732359.
± gives the uncertainty stated by the source.

Experiment: protein stability index of a GFP-peptide fusion (yeast GPS) (PSI 1-4); higher = more stable; sorted into four equal gates, so the index is relative within each strain
Conditions: doa10∆
Procedure, shortened: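 Plasmids in a pooled yeast library fused tiled 17-residue yeast protein peptides downstream of GFP and also expressed Cherry. Mid-log cultures grown without leucine were sorted into four equal gates by GFP/Cherry fluorescence ratio. Each gate's plasmids were PCR-amplified and Illumina-sequenced, and reads were matched to strains by barcodes. The protein stability index is derived by multiplying each gate's read frequency by its gate number and summing the results.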

| Sequence | protein stability index |
| --- | --- |
| FKSSVEMGKTDKSTKTA [YOR098C/NUP1] | 3.45 ± 0.095 |
| FKSYATRTVITDWDPQF [SMC2] | 2.88 ± 0.11 |
| FKVYEPLLLVGLDKFSN [RPS16A] | 1.72 ± 0.058 |
| FLEKEKQLTLLRSKLFQ [SMC4] | 2.46 ± 0.094 |
| FLFQNINFERIDEVFSW [GRR1] | 2.36 ± 0.059 |
| FLKHNGEEDAVDLLLEI [RPN1] | 3.23 ± 0.082 |
| FLLSAMTMASKSLEVVN [NSL1] | 1.4 ± 0.08 |
| FLLTQSKVSIEQRKEAA [RPN7] | 2.27 ± 0.13 |
| FLQELLKKVQQQQQAAA [SWI1] | 2.06 ± 0.081 |
| FLQRIDFQIDGNIFELL [RRI2] | 2.63 ± 0.1 |
| FLQSVDITGIRDVSDDV [GRR1] | 1.74 ± 0.041 |
| FLRTQFLKLYVLVKWTR [RGR1] | 1.46 ± 0.084 |
| FLTNYNVRMDTMANILY [RPB2] | 3.58 ± 0.17 |
| FLVEYEGQENNYNSTSR [SIR4] | 2.85 ± 0.093 |
| FMDEIDSIGSTRVEGSG [RPT6] | 2.57 ± 0.076 |
| FMEIVLEYNVALNDVYL [YML031W/NDC1] | 2.47 ± 0.09 |
| FMLRKQDPKTLVALLSR [SSN2] | 1.6 ± 0.055 |
| FMNDAAADVSAVDAKQL [YML103C/NUP188] | 2.52 ± 0.095 |
| FNFGGKSDTVTSASQPF [YOR098C/NUP1] | 2.21 ± 0.056 |
| FNGIENQSAYEWNGKSF [ISW2] | 3.09 ± 0.12 |
| FNLNLPPSSFGRSHTRN [REC8] | 3.35 ± 0.11 |
| FNQEGDYNFKYGIPLEF [PRP8] | 3.14 ± 0.084 |
| FNRDNKVSPAAAAKKAL [RPS26B] | 2.4 ± 0.12 |
| FNSVKSFDEWFNTPFAN [SNF2] | 2.9 ± 0.091 |
| FNTPFANTGGQDKIELS [SNF2] | 1.89 ± 0.18 |
| FNVHEVPRAALEERFDP [YMR129W/POM152] | 3.13 ± 0.067 |

| Sequence | protein stability index |
| --- | --- |
| FPGDSFPVDPTTPVKLG [RRP40] | 2.45 ± 0.058 |
| FPGKPVDVQAPTDDKTL [YOR098C/NUP1] | 2.78 ± 0.068 |
| FPNGFKNFENGPKKNVF [RPC34] | 3.26 ± 0.083 |
| FPPGVIGIDEGSDEAYV [RPC40] | 3.59 ± 0.091 |
| FPQTAMLRRHAAPPSTN [DIS3] | 1.89 ± 0.1 |
| FPRNGKAPEAEQVLSAA [RPL13A] | 3.14 ± 0.098 |
| FQAQQAQQAQQAQQAQQ [SNF2] | 2.86 ± 0.052 |
| FQIDNDNIRYATALQTC [SMC2] | 1.8 ± 0.052 |
| FQNLELETEQLSSELDS [SMC2] | 2.08 ± 0.12 |
| FQSVQLNINNPNFLIMQ [SMC2] | 2.6 ± 0.06 |
| FRHFIGIKAKHDKNIQK [ISW2] | 2.68 ± 0.089 |
| FRLIDTGALINNLEPRQ [RPN11] | 2.81 ± 0.23 |
| FRPIEIFTDFLPSSNGS [RRP42] | 2.19 ± 0.065 |
| FSAPIRPDIVHTVFTSV [RPL4A] | 1.7 ± 0.056 |
| FSEVYEYNRLKVQDAIE [LIN1] | 2.71 ± 0.059 |
| FSFGGTQTGQNTGPSTG [YGL172W/NUP49] | 3.59 ± 0.23 |
| FSMGHIRSSSVSLVAEA [MED4] | 1.52 ± 0.078 |
| FSPDGHIFQVEYALEAV [PRE6] | 3 ± 0.057 |
| FSQTVADNNDLQESINH [ECM29] | 3.03 ± 0.055 |
| FSRHAQQQTSTFNSKPV [SIR4] | 2.38 ± 0.056 |
| FSSSVSLSYMAFPNASK [RRP40] | 1.65 ± 0.078 |
| FSYFFESFESYHNLTTH [RPN6] | 2.61 ± 0.089 |
| FTGNNSTPGGGSVFNMN [YOR098C/NUP1] | 2.9 ± 0.097 |
| FTICLNDRNPRLNENKK [CSN12] | 3.03 ± 0.053 |
| FTLLDFKKQMQTIMKMG [SRP54] | 1.36 ± 0.13 |
